Measurements taken from patent US20200199241A1 (Chugai, published 2020).

Columns and labels:
FcγRIIa type H = molecular target: T1, FcγRIIa type H (human, UniProt P12318 36-217); experiment: SPR (Biacore), antibody captured, FcγR analyte
T1 construct: SPR analyte; also called FcγRIIaH
T1 sequence: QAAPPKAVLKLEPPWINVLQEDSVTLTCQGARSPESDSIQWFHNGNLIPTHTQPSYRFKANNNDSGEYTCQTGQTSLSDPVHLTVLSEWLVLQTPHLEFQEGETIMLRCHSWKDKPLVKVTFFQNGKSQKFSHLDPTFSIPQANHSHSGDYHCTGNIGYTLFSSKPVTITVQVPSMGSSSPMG

FcγRIIa type R [1] = molecular target: T2, FcγRIIa type R (human, UniProt P12318 36-217); experiment: SPR (Biacore), antibody captured, FcγR analyte
T2 construct: SPR analyte; also called FcγRIIaR; FcγRIIa(R)
T2 chain: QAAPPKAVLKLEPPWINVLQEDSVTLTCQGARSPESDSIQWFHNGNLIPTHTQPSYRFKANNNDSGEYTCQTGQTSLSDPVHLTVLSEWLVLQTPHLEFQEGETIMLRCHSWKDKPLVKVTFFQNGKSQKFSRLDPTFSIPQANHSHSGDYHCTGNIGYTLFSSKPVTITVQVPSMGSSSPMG

FcγRIIb [2] = molecular target: T3, FcγRIIb (human, UniProt P31994 43-217, limits assumed); experiment: SPR (Biacore), antibody captured, FcγR analyte
T3 construct: SPR analyte; also called FcγIIB; CD32
T3 sequence: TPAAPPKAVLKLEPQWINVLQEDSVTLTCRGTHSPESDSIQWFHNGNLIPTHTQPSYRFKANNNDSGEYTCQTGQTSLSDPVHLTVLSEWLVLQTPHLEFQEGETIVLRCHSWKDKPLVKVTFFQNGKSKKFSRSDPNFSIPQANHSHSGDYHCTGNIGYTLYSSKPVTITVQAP

FcγRIIIa type V = molecular target: T4, FcγRIIIa type V (human, UniProt P08637 17-208, limits assumed); experiment: SPR (Biacore), antibody captured, FcγR analyte
T4 construct: SPR analyte; allotype V158 was used here; also called FcγRIIIaV; FcγRIIIa(V)

FcγRIa = molecular target: T5, FcγRIa (human, UniProt P12314 16-292, limits assumed); experiment: SPR (Biacore), antibody captured, FcγR analyte
T5 construct: SPR analyte; also called CD64

FcγRIIb [3] = molecular target: T3, FcγRIIb; experiment: ratio of SPR KDs; reference IL6R-B3/IL6R-L
From the text: (§1) Furthermore, KD(IIaR)/KD(IIb) and KD(IIaH)/KD(IIb) in the table respectively represent the value obtained by dividing the KD value of each variant for FcγRIIaR by the KD value of each variant for FcγRIIb, and the value obtained by dividing the KD value of each variant for FcγRIIaH by the KD value of each variant for FcγRIIb. KD(IIb) of the parent polypeptide/KD(IIb) of the altered polypeptide refers to the value obtained by dividing the KD value of the parent polypeptide for FcγRIIb by the KD value of each variant for FcγRIIb.

FcγRIIa type R [4] = molecular target: T2, FcγRIIa type R; experiment: ratio of SPR KDs; stronger receptor here FcγRIIaR; reference IL6R-B3/IL6R-L (FcγRIIaH)
From the text: as §1

FcγRIIb [5] = molecular target: T3, FcγRIIb; experiment: ratio of SPR KDs: KD for FcγRIIaR over KD for FcγRIIb
From the text: (§2) Furthermore, KD(IIaR)/KD(IIb) and KD(IIaH)/KD(IIb) in the table respectively represent the value obtained by dividing the KD value of each variant for FcγRIIaR by the KD value of each variant for FcγRIIb, and the value obtained by dividing the KD value of each variant for FcγRIIaH by the KD value of each variant for FcγRIIb.

FcγRIIb [6] = molecular target: T3, FcγRIIb; experiment: ratio of SPR KDs: KD for FcγRIIaH over KD for FcγRIIb
From the text: as §2

T4 sequence (P08637 other isoform, or with tags, fused parts or gaps limits assumed): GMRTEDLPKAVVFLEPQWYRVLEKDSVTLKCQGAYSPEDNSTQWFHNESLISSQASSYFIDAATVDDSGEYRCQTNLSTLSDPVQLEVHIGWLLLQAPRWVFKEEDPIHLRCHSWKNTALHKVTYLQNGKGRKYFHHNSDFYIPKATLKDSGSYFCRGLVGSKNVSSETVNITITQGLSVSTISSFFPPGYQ
T5 sequence (P12314 16-292 limits assumed): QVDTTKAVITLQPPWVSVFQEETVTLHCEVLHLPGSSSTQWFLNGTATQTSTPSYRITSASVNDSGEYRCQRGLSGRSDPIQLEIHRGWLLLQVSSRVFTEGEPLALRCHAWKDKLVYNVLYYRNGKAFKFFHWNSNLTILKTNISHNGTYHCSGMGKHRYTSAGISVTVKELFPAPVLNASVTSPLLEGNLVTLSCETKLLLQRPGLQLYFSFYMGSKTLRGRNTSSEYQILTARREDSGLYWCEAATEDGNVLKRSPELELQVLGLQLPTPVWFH

B1: IL6R-BF648/IL6R-L (antibody, human IgG1)
heavy: not shown
light: DIQMTQSPSSLSASVGDRVTITCRASQDISSYLNWYQQKPGKAPKLLIYYTSRLHSGVPSRFSGSGSGTDFTFTISSLQPEDIATYYCQQGNTLPYTFGQGTKVEIK
Kd (FcγRIIa type H): 40 µM
Kd (FcγRIIa type R [1]): 15 µM
Kd (FcγRIIb [2]): 1.2 µM
Kd (FcγRIIIa type V): 71 µM
Kd (FcγRIa): 0.011 µM
KD(IIb) of the parent polypeptide/KD(IIb) of altered polypeptide (FcγRIIb [3]): 2.5
KD of the stronger of FcγRIIaR/FcγRIIaH binding of the variant / that of the parent polypeptide (FcγRIIa type R [4]): 19.9
KD(IIaR)/KD(IIb) (FcγRIIb [5]): 13
KD(IIaH)/KD(IIb) (FcγRIIb [6]): 33.9

B2: IL6R-BP149/IL6R-L (antibody, human IgG1)
heavy: QVQLQESGPGLVKPSETLSLTCAVSGHSISHDHAWSWVRQPPGEGLEWIGFISYSGITNYNPSLQGRVTISRDNSKNTLYLQMNSLRAEDTAVYYCARSLARTTAMDYWGEGTLVTVSSASTKGPSVFPLAPSSKSTSGGTAALGCLVKDYFPEPVTVSWNSGALTSGVHTFPAVLQSSGLYSLSSVVTVPSSSLGTQTYICNVNHKPSNTKVDKKVEPKSCDKTHTCPPCPAPDYLGDDSVFLFPPKPKDTLMISRTPEVTCVVVDVSHEDPEVKFNWYVDGVEVHNAKTKPREEQDNSTYRVVSVLTVLHQDWLNGKEYKCKVSNAALPKPIEKTISKAKGQPREPQVYTLPPSRDELTKNQVSLTCLVKGFYPSDIAVEWESNGQPENNYKTTPPVLDSDGSFFLYSKLTVDKSRWQQGNVFSCSVMHEALHNHYTQESLSLSP
light: DIQMTQSPSSLSASVGDRVTITCRASQDISSYLNWYQQKPGKAPKLLIYYTSRLHSGVPSRFSGSGSGTDFTFTISSLQPEDIATYYCQQGNTLPYTFGQGTKVEIK
Kd (FcγRIIa type H): 8.4 µM
Kd (FcγRIIa type R [1]): 1.4 µM
Kd (FcγRIIb [2]): 0.093 µM
Kd (FcγRIIIa type V): 37 µM
Kd (FcγRIa): 0.12 µM
KD(IIb) of the parent polypeptide/KD(IIb) of altered polypeptide (FcγRIIb [3]): 33.1
KD of the stronger of FcγRIIaR/FcγRIIaH binding of the variant / that of the parent polypeptide (FcγRIIa type R [4]): 1.8
KD(IIaR)/KD(IIb) (FcγRIIb [5]): 15
KD(IIaH)/KD(IIb) (FcγRIIb [6]): 89.9

B3: IL6R-BP131/IL6R-L (antibody, human IgG1)
heavy: QVQLQESGPGLVKPSETLSLTCAVSGHSISHDHAWSWVRQPPGEGLEWIGFISYSGITNYNPSLQGRVTISRDNSKNTLYLQMNSLRAEDTAVYYCARSLARTTAMDYWGEGTLVTVSSASTKGPSVFPLAPSSKSTSGGTAALGCLVKDYFPEPVTVSWNSGALTSGVHTFPAVLQSSGLYSLSSVVTVPSSSLGTQTYICNVNHKPSNTKVDKKVEPKSCDKTHTCPPCPAPDLLGDDSVFLFPPKPKDTLMISRTPEVTCVVVDVSHEDPEVKFNWYVDGVEVHNAKTKPREEQYNSTYRVVSVLTVLHQDWLNGKEYKCKVSNKALPKPIEKTISKAKGQPREPQVYTLPPSRDELTKNQVSLTCLVKGFYPSDIAVEWESNGQPENNYKTTPPVLDSDGSFFLYSKLTVDKSRWQQGNVFSCSVMHEALHNHYTQESLSLSP
light: DIQMTQSPSSLSASVGDRVTITCRASQDISSYLNWYQQKPGKAPKLLIYYTSRLHSGVPSRFSGSGSGTDFTFTISSLQPEDIATYYCQQGNTLPYTFGQGTKVEIK
Kd (FcγRIIa type H): 14 µM
Kd (FcγRIIa type R [1]): 3.1 µM
Kd (FcγRIIb [2]): 0.25 µM
Kd (FcγRIIIa type V): 59 µM
Kd (FcγRIa): 0.12 µM
KD(IIb) of the parent polypeptide/KD(IIb) of altered polypeptide (FcγRIIb [3]): 12.6
KD of the stronger of FcγRIIaR/FcγRIIaH binding of the variant / that of the parent polypeptide (FcγRIIa type R [4]): 4
KD(IIaR)/KD(IIb) (FcγRIIb [5]): 12.5
KD(IIaH)/KD(IIb) (FcγRIIb [6]): 56.9

B4: IL6R-BP087/IL6R-L (antibody, human IgG1)
heavy: QVQLQESGPGLVKPSETLSLTCAVSGHSISHDHAWSWVRQPPGEGLEWIGFISYSGITNYNPSLQGRVTISRDNSKNTLYLQMNSLRAEDTAVYYCARSLARTTAMDYWGEGTLVTVSSASTKGPSVFPLAPSSKSTSGGTAALGCLVKDYFPEPVTVSWNSGALTSGVHTFPAVLQSSGLYSLSSVVTVPSSSLGTQTYICNVNHKPSNTKVDKKVEPKSCDKTHTCPPCPAPEYLGGDSVFLFPPKPKDTLMISRTPEVTCVVVDVSHEDPEVKFNWYVDGVEVHNAKTKPREEQYNSTYRVVSVLTVLHQDWLNGKEYKCKVSNKALPKPIEKTISKAKGQPREPQVYTLPPSRDELTKNQVSLTCLVKGFYPSDIAVEWESNGQPENNYKTTPPVLDSDGSFFLYSKLTVDKSRWQQGNVFSCSVMHEALHNHYTQESLSLSP
light: DIQMTQSPSSLSASVGDRVTITCRASQDISSYLNWYQQKPGKAPKLLIYYTSRLHSGVPSRFSGSGSGTDFTFTISSLQPEDIATYYCQQGNTLPYTFGQGTKVEIK
Kd (FcγRIIa type H): 21 µM
Kd (FcγRIIa type R [1]): 9.7 µM
Kd (FcγRIIb [2]): 0.61 µM
Kd (FcγRIIIa type V): 44 µM
Kd (FcγRIa): 0.038 µM
KD(IIb) of the parent polypeptide/KD(IIb) of altered polypeptide (FcγRIIb [3]): 5.1
KD of the stronger of FcγRIIaR/FcγRIIaH binding of the variant / that of the parent polypeptide (FcγRIIa type R [4]): 12.6
KD(IIaR)/KD(IIb) (FcγRIIb [5]): 16
KD(IIaH)/KD(IIb) (FcγRIIb [6]): 34.7

B5: IL6R-BP130/IL6R-L (antibody, human IgG1)
heavy: QVQLQESGPGLVKPSETLSLTCAVSGHSISHDHAWSWVRQPPGEGLEWIGFISYSGITNYNPSLQGRVTISRDNSKNTLYLQMNSLRAEDTAVYYCARSLARTTAMDYWGEGTLVTVSSASTKGPSVFPLAPSSKSTSGGTAALGCLVKDYFPEPVTVSWNSGALTSGVHTFPAVLQSSGLYSLSSVVTVPSSSLGTQTYICNVNHKPSNTKVDKKVEPKSCDKTHTCPPCPAPDLLGGDSVFLFPPKPKDTLMISRTPEVTCVVVDVSHEDPEVKFNWYVDGVEVHNAKTKPREEQYNSTYRVVSVLTVLHQDWLNGKEYKCKMSNKALPKPIEKTISKAKGQPREPQVYTLPPSRDELTKNQVSLTCLVKGFYPSDIAVEWESNGQPENNYKTTPPVLDSDGSFFLYSKLTVDKSRWQQGNVFSCSVMHEALHNHYTQESLSLSP
light: DIQMTQSPSSLSASVGDRVTITCRASQDISSYLNWYQQKPGKAPKLLIYYTSRLHSGVPSRFSGSGSGTDFTFTISSLQPEDIATYYCQQGNTLPYTFGQGTKVEIK
Kd (FcγRIIa type H): 26 µM
Kd (FcγRIIa type R [1]): 5.3 µM
Kd (FcγRIIb [2]): 0.3 µM
Kd (FcγRIIIa type V): 71 µM
Kd (FcγRIa): 0.0018 µM
KD(IIb) of the parent polypeptide/KD(IIb) of altered polypeptide (FcγRIIb [3]): 10.2
KD of the stronger of FcγRIIaR/FcγRIIaH binding of the variant / that of the parent polypeptide (FcγRIIa type R [4]): 6.9
KD(IIaR)/KD(IIb) (FcγRIIb [5]): 17.5
KD(IIaH)/KD(IIb) (FcγRIIb [6]): 85.5

B6: IL6R-BP143/IL6R-L (antibody, human IgG1)
heavy: QVQLQESGPGLVKPSETLSLTCAVSGHSISHDHAWSWVRQPPGEGLEWIGFISYSGITNYNPSLQGRVTISRDNSKNTLYLQMNSLRAEDTAVYYCARSLARTTAMDYWGEGTLVTVSSASTKGPSVFPLAPSSKSTSGGTAALGCLVKDYFPEPVTVSWNSGALTSGVHTFPAVLQSSGLYSLSSVVTVPSSSLGTQTYICNVNHKPSNTKVDKKVEPKSCDKTHTCPPCPAPEYLGGDSVFLFPPKPKDTLMISRTPEVTCVVVDVSHEDPEVKFNWYVDGVEVHNAKTKPREEQYNSTYRVVSVLTVLHQDWLNGKEYKCKVSNAALPAPIEKTISKAKGQPREPQVYTLPPSRDELTKNQVSLTCLVKGFYPSDIAVEWESNGQPENNYKTTPPVLDSDGSFFLYSKLTVDKSRWQQGNVFSCSVMHEALHNHYTQESLSLSP
light: DIQMTQSPSSLSASVGDRVTITCRASQDISSYLNWYQQKPGKAPKLLIYYTSRLHSGVPSRFSGSGSGTDFTFTISSLQPEDIATYYCQQGNTLPYTFGQGTKVEIK
Kd (FcγRIIa type H): 27 µM
Kd (FcγRIIa type R [1]): 5.7 µM
Kd (FcγRIIb [2]): 0.57 µM
Kd (FcγRIIIa type V): 62 µM
Kd (FcγRIa): 0.016 µM
KD(IIb) of the parent polypeptide/KD(IIb) of altered polypeptide (FcγRIIb [3]): 5.4
KD of the stronger of FcγRIIaR/FcγRIIaH binding of the variant / that of the parent polypeptide (FcγRIIa type R [4]): 7.5
KD(IIaR)/KD(IIb) (FcγRIIb [5]): 10
KD(IIaH)/KD(IIb) (FcγRIIb [6]): 47.1

B7: IL6R-BP086/IL6R-L (antibody, human IgG1)
heavy: QVQLQESGPGLVKPSETLSLTCAVSGHSISHDHAWSWVRQPPGEGLEWIGFISYSGITNYNPSLQGRVTISRDNSKNTLYLQMNSLRAEDTAVYYCARSLARTTAMDYWGEGTLVTVSSASTKGPSVFPLAPSSKSTSGGTAALGCLVKDYFPEPVTVSWNSGALTSGVHTFPAVLQSSGLYSLSSVVTVPSSSLGTQTYICNVNHKPSNTKVDKKVEPKSCDKTHTCPPCPAPELLGGDSVFLFPPKPKDTLMISRTPEVTCVVVDVSHEDPEVKFNWYVDGVEVHNAKTKPREEQYNSTYRVVSVLTVLHQDWLNGKEYKCKVSNAALPKPIEKTISKAKGQPREPQVYTLPPSRDELTKNQVSLTCLVKGFYPSDIAVEWESNGQPENNYKTTPPVLDSDGSFFLYSKLTVDKSRWQQGNVFSCSVMHEALHNHYTQESLSLSP
light: DIQMTQSPSSLSASVGDRVTITCRASQDISSYLNWYQQKPGKAPKLLIYYTSRLHSGVPSRFSGSGSGTDFTFTISSLQPEDIATYYCQQGNTLPYTFGQGTKVEIK
Kd (FcγRIIa type H): 34 µM
Kd (FcγRIIa type R [1]): 9.7 µM
Kd (FcγRIIb [2]): 0.57 µM
Kd (FcγRIIIa type V): 57 µM
Kd (FcγRIa): 0.027 µM
KD(IIb) of the parent polypeptide/KD(IIb) of altered polypeptide (FcγRIIb [3]): 5.4
KD of the stronger of FcγRIIaR/FcγRIIaH binding of the variant / that of the parent polypeptide (FcγRIIa type R [4]): 12.6
KD(IIaR)/KD(IIb) (FcγRIIb [5]): 17.1
KD(IIaH)/KD(IIb) (FcγRIIb [6]): 59.9
